This note sets out measurements from publication PMC4609494.

The target in test [1] is TNF receptor-1 (TNFR-1), rat (rat) (UniProt P22934).
For test [2] the target is unchanged. The source holds these as a separate data set.
In test [3] the target is TNF receptor-2 (TNFR-2), rat (rat) (UniProt Q80WY6).
For test [4] the target is unchanged. This is another data set of the same source.

Sequence of UniProt P22934 (P22934 30-461): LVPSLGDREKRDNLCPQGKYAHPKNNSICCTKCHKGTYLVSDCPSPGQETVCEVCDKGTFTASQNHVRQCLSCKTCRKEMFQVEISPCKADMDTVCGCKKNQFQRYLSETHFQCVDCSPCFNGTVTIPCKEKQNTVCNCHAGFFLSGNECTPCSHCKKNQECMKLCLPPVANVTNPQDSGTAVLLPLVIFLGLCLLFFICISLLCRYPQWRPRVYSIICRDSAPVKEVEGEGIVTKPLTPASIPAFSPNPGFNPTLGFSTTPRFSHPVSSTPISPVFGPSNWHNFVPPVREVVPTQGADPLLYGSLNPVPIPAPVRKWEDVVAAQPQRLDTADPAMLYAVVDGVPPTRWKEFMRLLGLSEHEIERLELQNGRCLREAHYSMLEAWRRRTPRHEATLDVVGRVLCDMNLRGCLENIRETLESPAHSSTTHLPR
Sequence of UniProt Q80WY6 (Q80WY6 23-474): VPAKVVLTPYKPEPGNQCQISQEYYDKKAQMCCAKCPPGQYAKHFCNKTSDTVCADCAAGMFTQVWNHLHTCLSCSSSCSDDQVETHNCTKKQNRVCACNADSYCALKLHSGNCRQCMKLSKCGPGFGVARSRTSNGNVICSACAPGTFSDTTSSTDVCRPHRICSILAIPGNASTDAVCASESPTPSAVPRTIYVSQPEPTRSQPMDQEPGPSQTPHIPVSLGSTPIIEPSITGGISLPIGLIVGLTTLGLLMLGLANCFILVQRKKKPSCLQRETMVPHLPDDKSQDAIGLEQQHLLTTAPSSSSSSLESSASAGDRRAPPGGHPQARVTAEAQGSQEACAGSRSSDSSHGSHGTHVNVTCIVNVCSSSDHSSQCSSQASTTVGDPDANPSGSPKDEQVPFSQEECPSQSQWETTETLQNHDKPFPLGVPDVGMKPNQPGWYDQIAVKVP

For “TNF mutant protein R32W (R32W/S86T), selective TNFR-1 agonist (ligand)”, the increase of the voltage-gated sodium channel current I Na(V) in small rat DRG neurons, whole-cell patch clamp, repetitive depolarization to 0 mV, R32W 10 pg (dose-dependent over 1-100 pg) in test [1] was 27.2%. Moreover, the increase of the TTX-resistant NaV1.8 current I NaV(1.8) in small rat DRG neurons, whole-cell patch clamp, repetitive depolarization to 0 mV, R32W 100 pg, 300 s after treatment in test [2] turned out to be 18.9%.
Take “TNF mutant protein D145 (D143N/A145R), selective TNFR-2 agonist (ligand)”: the increase of the voltage-gated sodium channel current I Na(V) in small rat DRG neurons, whole-cell patch clamp, repetitive depolarization to 0 mV, D145 10 pg (dose-dependent over 1-100 pg) in test [3] was found to be 44.9%. The same substance returned an increase of the TTX-resistant NaV1.8 current I NaV(1.8) in small rat DRG neurons, whole-cell patch clamp, repetitive depolarization to 0 mV, D145 100 pg, 300 s after treatment in test [4] of 14.5%.
